Measured values reported in paper PMC9220312.

Target: mouse thrombomodulin (endogenous, lung) (mouse (endogenous in mouse lung)) (UniProt P15306)
Chain of UniProt P15306 (P15306 17-577): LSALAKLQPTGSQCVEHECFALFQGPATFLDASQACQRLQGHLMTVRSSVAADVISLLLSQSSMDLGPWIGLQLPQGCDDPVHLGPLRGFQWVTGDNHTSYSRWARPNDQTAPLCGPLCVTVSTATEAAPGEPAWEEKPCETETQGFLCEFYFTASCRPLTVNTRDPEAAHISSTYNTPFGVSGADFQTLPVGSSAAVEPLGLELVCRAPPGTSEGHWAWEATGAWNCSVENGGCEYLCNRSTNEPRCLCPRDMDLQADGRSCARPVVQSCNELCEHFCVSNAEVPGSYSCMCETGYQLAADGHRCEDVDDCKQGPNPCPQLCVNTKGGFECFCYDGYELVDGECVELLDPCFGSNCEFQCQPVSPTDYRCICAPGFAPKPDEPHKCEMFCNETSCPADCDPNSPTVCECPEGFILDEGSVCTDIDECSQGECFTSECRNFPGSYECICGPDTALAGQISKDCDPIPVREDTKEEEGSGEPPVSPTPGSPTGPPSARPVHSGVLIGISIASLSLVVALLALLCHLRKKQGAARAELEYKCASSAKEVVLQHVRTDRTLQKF

recombinant human His-tagged fragment of Angiopoietin-2 (ab220589, Abcam) (from UniProt O15123 19-496) (domain or fragment)
tail bleeding time in mice 2 h after i.p. injection of 8 nmol human ANGPT2: 50%
